Columns and labels:
[1] = molecular target: T1, GST-KH (Bicc1 KH domains) (UniProt Q99MQ1); assay: competition; conditions: EMSA buffer 1X: 10 mM Tris-HCl pH 8.0, 100 mM KCl, 2.5 mM MgCl2, 2.5% glycerol (slightly below 1X in some mixes); about 1 mM DTT, 0.05 ug/uL yeast tRNA; 50 nM …
T1 sequence (Q99MQ1 whole entry, looked up): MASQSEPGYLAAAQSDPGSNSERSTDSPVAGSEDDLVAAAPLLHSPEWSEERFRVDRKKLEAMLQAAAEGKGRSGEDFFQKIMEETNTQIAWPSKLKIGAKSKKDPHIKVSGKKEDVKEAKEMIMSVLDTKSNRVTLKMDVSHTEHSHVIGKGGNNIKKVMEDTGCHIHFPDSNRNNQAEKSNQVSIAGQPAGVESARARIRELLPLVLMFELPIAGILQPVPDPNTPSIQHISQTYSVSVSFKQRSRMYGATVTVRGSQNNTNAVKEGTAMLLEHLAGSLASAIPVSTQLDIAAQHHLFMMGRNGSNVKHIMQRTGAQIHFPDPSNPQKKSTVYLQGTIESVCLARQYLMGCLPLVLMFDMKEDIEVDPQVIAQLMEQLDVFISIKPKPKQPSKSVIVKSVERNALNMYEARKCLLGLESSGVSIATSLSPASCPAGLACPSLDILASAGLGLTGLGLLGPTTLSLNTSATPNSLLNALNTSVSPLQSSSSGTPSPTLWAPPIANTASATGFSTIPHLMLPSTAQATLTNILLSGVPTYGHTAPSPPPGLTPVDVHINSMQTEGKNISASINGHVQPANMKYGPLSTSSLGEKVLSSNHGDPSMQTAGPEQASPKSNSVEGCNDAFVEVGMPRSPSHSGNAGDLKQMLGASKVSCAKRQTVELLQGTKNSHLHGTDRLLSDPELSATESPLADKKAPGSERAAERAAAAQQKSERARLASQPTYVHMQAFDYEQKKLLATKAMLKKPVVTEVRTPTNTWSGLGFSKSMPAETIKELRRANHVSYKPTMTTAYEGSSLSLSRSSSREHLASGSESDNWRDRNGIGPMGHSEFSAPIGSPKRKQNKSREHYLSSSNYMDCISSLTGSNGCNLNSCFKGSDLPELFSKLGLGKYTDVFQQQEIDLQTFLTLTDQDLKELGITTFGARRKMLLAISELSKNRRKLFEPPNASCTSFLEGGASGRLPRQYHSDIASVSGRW

[2] = molecular target: T1, GST-KH (Bicc1 KH domains); assay: EMSA; conditions: EMSA buffer 1X: 10 mM Tris-HCl pH 8.0, 100 mM KCl, 2.5 mM MgCl2, 2.5% glycerol (slightly below 1X in some mixes); about 1 mM DTT, 0.05 ug/uL yeast tRNA; 50 nM …

Sequence	IC50 [1]	Kd [2]
GAAGAAAAAGGUGACCUGAAUGAUGUGCAUCGGGUCAAGAGAGCAGAA [Dand5 3'UTR66-110 Mut untagged competitor]	> 1000 nM	
GAAGAAAGACGUGACCUGAAUGAUGUGCAUCGGGUCAAGAGAGCAGAAUGUCUGGGCAACAGGCUCAGG / CTGAGCCTGTTGCCCAGAC [Dand5 3'UTR66-110 WT Tag#1 annealed to Probe #1]		103 nM
GAAGAAAGACGUGACCUGAAUGAUGUGCAUCGGGUCAAGAGAGCAGAAACACGUACCGAGAUGGUGCGC / CGCACCATCTCGGTACGTG [Dand5 3'UTR66-110 WT Tag#2 annealed to Probe #2]		109 nM
